Experimental data as given in PMC6586891, “On the molecular and cellular effects of omeprazole to further support its effectiveness as an antigiardial drug” (Scientific Reports, 2019).

Test system: O=CC(O)COP(=O)(O)O
Assay: Michaelis-Menten kinetics of purified enzyme (Km), coupled alpha-GDH/NADH assay
Type: biochemical, Giardia duodenalis

Question: For “Giardia lamblia triosephosphate isomerase (GlTIM Tmut) (Giardia duodenalis; C202A/C222A/C228A)”, which Km is on record?
Answer: 1.2 ± 0.09 mM

Question: What about the kcat/Km of the same substance?
Answer: 1.92e+06 M⁻¹ s⁻¹
